Laboratory results reported in US20110195900A1, “PEPTIDIC PTH RECEPTOR AGONISTS” (FERRING B.V., priority 2008, published 2011).
Starred links: 1 amine or outer side, 2 acyl side, 3 side chain; linkers in the order of their positions; H or OH if unused. Non-standard residues stand in square brackets, D forms with d. Residues, ends and D or L forms follow the SMILES beside them. No end group written: not given here. hSer(OMe) = COCC[C@H](N[*:1])C(=O)[*:2]; 1Nal = N[C@@H](Cc1cccc2ccccc12)C(=O)O; β3hI = CC[C@H](C)[C@H](N)CC(=O)O; β3hR = N=C(N)NCCC[C@H](N)CC(=O)O; β3hF = N[C@H](CC(=O)O)Cc1ccccc1; β3hK = NCCCC[C@H](N)CC(=O)O; Nle = CCCC[C@H](N)C(=O)O; Aib = CC(C)(N)C(=O)O

T1: human PTH-1 receptor (Homo sapiens, UniProt Q03431)
T1 construct: expressed in transfected cells; host or cells: HEK-293
T1 sequence (Q03431 27-593): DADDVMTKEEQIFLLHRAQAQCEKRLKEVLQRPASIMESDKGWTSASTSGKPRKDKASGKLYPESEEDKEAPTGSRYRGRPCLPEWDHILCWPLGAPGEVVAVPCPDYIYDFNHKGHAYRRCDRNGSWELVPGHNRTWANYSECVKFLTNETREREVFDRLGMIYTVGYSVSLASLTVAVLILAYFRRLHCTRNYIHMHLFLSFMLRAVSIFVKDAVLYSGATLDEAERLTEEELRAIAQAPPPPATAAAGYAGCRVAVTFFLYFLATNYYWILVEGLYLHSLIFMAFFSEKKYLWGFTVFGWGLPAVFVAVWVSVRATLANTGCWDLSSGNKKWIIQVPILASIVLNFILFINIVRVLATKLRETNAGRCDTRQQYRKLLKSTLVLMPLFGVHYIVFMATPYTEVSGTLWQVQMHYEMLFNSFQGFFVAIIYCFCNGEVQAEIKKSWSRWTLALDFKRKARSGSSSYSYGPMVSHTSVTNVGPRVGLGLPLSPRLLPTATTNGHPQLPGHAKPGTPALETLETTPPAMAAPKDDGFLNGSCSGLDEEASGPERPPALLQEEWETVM

B1: [Aib^1, Nle^8, hSer(OMe)^18, β-hLys^19, 1-Nal^23, Leu^27] hPTH (1-$$4)-NH2 (peptide)
peptide: [Aib]VSEIQL[Nle]HNLGKHLNS[hSer(OMe)][β3hK]RVE[1Nal]LRKLLQDVHNF-NH2
modifications: N-terminus assumed
SMILES: CCCC[C@H](NC(=O)[C@H](CC(C)C)NC(=O)[C@H](CCC(N)=O)NC(=O)[C@@H](NC(=O)[C@H](CCC(=O)O)NC(=O)[C@H](CO)NC(=O)[C@@H](NC(=O)C(C)(C)N)C(C)C)[C@@H](C)CC)C(=O)N[C@@H](Cc1c[nH]cn1)C(=O)N[C@@H](CC(N)=O)C(=O)N[C@@H](CC(C)C)C(=O)NCC(=O)N[C@@H](CCCCN)C(=O)N[C@@H](Cc1c[nH]cn1)C(=O)N[C@@H](CC(C)C)C(=O)N[C@@H](CC(N)=O)C(=O)N[C@@H](CO)C(=O)N[C@@H](CCOC)C(=O)N[C@@H](CCCCN)CC(=O)N[C@@H](CCCNC(=N)N)C(=O)N[C@H](C(=O)N[C@@H](CCC(=O)O)C(=O)N[C@@H](Cc1cccc2ccccc12)C(=O)N[C@@H](CC(C)C)C(=O)N[C@@H](CCCNC(=N)N)C(=O)N[C@@H](CCCCN)C(=O)N[C@@H](CC(C)C)C(=O)N[C@@H](CC(C)C)C(=O)N[C@@H](CCC(N)=O)C(=O)N[C@@H](CC(=O)O)C(=O)N[C@H](C(=O)N[C@@H](Cc1c[nH]cn1)C(=O)N[C@@H](CC(N)=O)C(=O)N[C@@H](Cc1ccccc1)C(N)=O)C(C)C)C(C)C

Columns and labels:
[1] = biological target: T1, human PTH-1 receptor; experiment: Reporter gene assay (CRE-luciferase) for agonist activity in transiently transfected HEK-293 cells; format: cell-based
In short: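 Selectivity came from luciferase transcriptional reporter assays expressing human PTH-2 receptor. PTH-1 agonism used transiently transfected HEK-293 cells carrying SV40-promoter receptor and cAMP-responsive-element luciferase; 4-5 h compound exposure, lysis, luminescence, non-linear-regression EC50/efficacy; ≥3 independent runs, PTH (1-34) control each.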

[2] = biological target: T2, human PTH-2 receptor (Homo sapiens, UniProt P49190); experiment: Luciferase-based transcriptional reporter gene assay for selectivity; format: cell-based
T2 construct: expressed in transfected cells
Protocol: Agonist activity of compounds on the human PTH-1 receptor was determined in a reporter gene assay by transiently transfecting HEK-293 cells with plasmids encoding human PTH-1 receptor under control of the SV40 promoter and a luciferase reporter gene under control of cAMP responsive elements (CRE). See Himmler et al, J. Recept. Res. 13 (1993) 79-94, for further guidance on this assay. Transfected cells were exposed to serial dilutions of compounds for 4-5 hours followed by lysis of cells, determination of luciferase activity, and determination of compound efficacies and EC50 values through non-linear regression.
PTH (1-34) was used as an internal control in each experiment and compounds were tested in at least three independent experiments. To determine selectivity, compounds were tested in luciferase-based transcriptional reporter gene assays expressing the human PTH-2 receptor.

[3] = biological target: human parathyroid hormone receptor 2 (human, UniProt P49190); experiment: cell-based or functional assay
[4] = biological target: human parathyroid hormone receptor 1 (human, UniProt Q03431); experiment: cell-based or functional assay

T2 sequence (P49190 25-550): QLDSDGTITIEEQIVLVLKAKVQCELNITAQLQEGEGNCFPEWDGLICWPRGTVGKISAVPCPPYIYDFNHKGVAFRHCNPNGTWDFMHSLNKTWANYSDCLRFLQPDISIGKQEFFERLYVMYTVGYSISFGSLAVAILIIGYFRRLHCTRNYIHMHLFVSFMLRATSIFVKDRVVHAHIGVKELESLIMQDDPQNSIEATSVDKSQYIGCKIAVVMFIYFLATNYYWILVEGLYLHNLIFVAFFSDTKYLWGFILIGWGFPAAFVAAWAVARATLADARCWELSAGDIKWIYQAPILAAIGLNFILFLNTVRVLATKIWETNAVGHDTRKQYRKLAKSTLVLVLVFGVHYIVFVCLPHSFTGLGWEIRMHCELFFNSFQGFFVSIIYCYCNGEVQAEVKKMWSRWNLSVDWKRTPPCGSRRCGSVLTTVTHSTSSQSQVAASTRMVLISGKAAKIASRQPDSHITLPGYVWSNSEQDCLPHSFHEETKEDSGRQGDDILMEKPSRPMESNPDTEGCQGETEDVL

Molecule | EC50 [1] | hPTHR-2/hPTHR-1 ([1]; Table 3, ratio of EC50 values, selectivity for hPTH-1 receptor over hPTH-2 receptor) | potency at the hPTH-1 receptor compared to PTH (1-34) ([1]; in words) | EC50 [2] | hPTHR-2 EC50 (nM), luciferase reporter gene assay [3] | hPTHR-1 EC50 (nM), CRE-luciferase reporter gene assay [4]
CCCC[C@H](NC(=O)[C@H](CC(C)C)NC(=O)[C@H](CCC(N)=O)NC(=O)[C@@H](NC(=O)[C@H](CCC(=O)O)NC(=O)[C@H](CO)NC(=O)[C@@H](NC(=O)[C@@H](N)CO)C(C)C)[C@@H](C)CC)C(=O)N[C@@H](Cc1c[nH]cn1)C(=O)N[C@@H](CC(N)=O)C(=O)N[C@@H](CC(C)C)C(=O)NCC(=O)N[C@@H](CCCCN)C(=O)N[C@@H](Cc1c[nH]cn1)C(=O)N[C@@H](CC(C)C)C(=O)N[C@@H](CC(N)=O)C(=O)N[C@@H](CO)C(=O)N[C@H](CC(=O)N[C@@H](CCC(=O)O)C(=O)N[C@@H](CCCNC(=N)N)C(=O)N[C@H](C(=O)N[C@@H](CCC(=O)O)C(=O)N[C@@H](Cc1cccc2ccccc12)C(=O)N[C@@H](CC(C)C)C(=O)N[C@@H](CCCNC(=N)N)C(=O)N[C@@H](CCCCN)C(=O)N[C@@H](CC(C)C)C(=O)N[C@@H](CC(C)C)C(=O)N[C@@H](CCC(N)=O)C(=O)N[C@@H](CC(=O)O)C(=O)N[C@H](C(N)=O)C(C)C)C(C)C)[C@@H](C)CC [SEQ ID NO: 1, [Nle^8, β-hIle^18,1-Nal^23, Leu^27] hPTH-(1-31)-NH2] (H-SVSEIQL[Nle]HNLGKHLNS[β3hI]ERVE[1Nal]LRKLLQDV-NH2; N-terminus assumed) | 0.09 nM | 339 | Improved potency | 32 nM |  | 
SVSEIQL[Nle]HNLGKHLNS[β3hF]ERVE[1Nal]LRKLLQDVHNF-NH2 [[Nle^8, β-hPhe^18, 1-Nal^23, Leu^27] hPTH (1-34)-NH2] |  |  |  |  | 10 nM | 0.11 nM
[Aib]VSEIQL[Nle]HNLGKHLNS[β3hF]ERVE[1Nal]LRKLLQDVHNF-NH2 [[Aib^1, Nle^8, β-hPhe^18, 1-Nal^23, Leu^27 hPTH (1-34)-NH2] |  |  |  |  | 5 nM | 0.06 nM
[Aib]VSEIQL[Nle]HNLGKHLKS[β3hI]ERVE[1Nal]LRKLLQRVHEF-NH2 [[Aib^1, Nle^8, Lys^16, β-hIle^18, 1-Nal^23, Leu^27, Arg^30, Glu^33] hPTH (1-34)-NH2] |  |  |  |  | 6 nM | 0.09 nM
[Aib]VSEIQL[Nle]HSLGKHLKS[β3hI]ERVE[1Nal]LRKLLQRVHEF-NH2 [[Aib^1, Nle^8, Ser^10, Lys^16, β-hIle^18, 1-Nal^23, Leu^27, Arg^30, Glu^33] hPTH (1-34)-NH2] |  |  |  |  | 6 nM | 0.09 nM
SVSEIQL[Nle]HNLGKHLKS[β3hI]ERVE[1Nal]LRKLLQRVHEF-NH2 [[Nle^8, Lys^16, β-hIle^18, 1-Nal^23, Leu^27, Arg^30, Glu^33] hPTH (1-34)-NH2] |  |  |  |  | 14 nM | 0.09 nM
SVSEIQL[Nle]HNLGKHLKS[β3hI]ERVE[1Nal]LRKLLQRVHNF-NH2 [[Nle^8, Lys^16, β-hIle^18, 1-Nal^23, Leu^27, Arg^30] hPTH (1-34)-NH2] |  |  |  |  | 14 nM | 0.14 nM
[Aib]VSEIQL[Nle]HNLGKHLNS[β3hR]ERVE[1Nal]LRKLLQDVHNF-NH2 [[Aib^1, Nle^8, β-hArg^18, 1-Nal^23, Leu^27] hPTH (1-34)-NH2] |  |  |  |  | 16 nM | 0.05 nM
[Aib]VSEIQL[Nle]HNLGKHLN[β3hF][hSer(OMe)]ERVE[1Nal]LRKLLQDVHNF-NH2 [[Aib^1, Nle^8, β-hPhe^17, hSer(OMe)^18, 1-Nal^23, Leu^27] hPTH-(1-34)-NH2] |  |  |  |  | 117 nM | 0.1 nM
SVSEIQL[Nle]HSLGKHLKS[β3hI]ERVE[1Nal]LRKLLQRVHEF-NH2 [[Nle^8, Ser^10, Lys^16, β-hIle^18, 1-Nal^23, Leu^27, Arg^30, Glu^33] hPTH(1-34)-NH2] |  |  |  |  | 8 nM | 0.12 nM
[Aib]VSEIQL[Nle]HSLGKHLKS[β3hI]ERVE[1Nal]LRKLLQRV-NH2 [[Aib^1, Nle^8, Ser^10, Lys^16, β-hIle^18, 1-Nal^23, Leu^27, Arg^30] hPTH (1-31)-NH2] |  |  |  |  | 6 nM | 0.09 nM
SVSEIQL[Nle]HNLGKHLKS[β3hI]ERVE[1Nal]LRKLLQDVHNF-NH2 [[Nle^8, Lys^16, β-hIle^18, 1-Nal^23, Leu^27] hPTH (1-34)-NH2] |  |  |  |  | 30 nM | 0.08 nM
[Aib]VSEIQL[Nle]HNLGKHLNS[β3hI]ERVE[1Nal]LRKLLQDVHNF-NH2 [[Aib^1, Nle^8, β-hIle^18, 1-Nal^23, Leu^27] hPTH (1-34)-NH2] |  |  |  |  | 16 nM | 0.04 nM
[Aib]VSEIQL[Nle]HSLGKHLKS[β3hI]ERVE[1Nal]LRKLLQRVHEE-NH2 [[Aib^1, Nle^8, Ser^10, Lys^16, β-hIle^18, 1-Nal^23, Leu^27, Arg^30, Glu^33, Glu^34] hPTH (1-34)-NH2] |  |  |  |  | 4 nM | 0.04 nM
SVSEIQL[Nle]HSLGKHLKS[β3hI]ERVE[1Nal]LRKLLQRVHEE-NH2 [[Nle^8, Ser^10, Lys^16, β-hIle^18, 1-Nal^23, Leu^27, Arg^30, Glu^33, Glu^34] hPTH (1-34)-NH2] |  |  |  |  | 6 nM | 0.04 nM
B1 |  |  |  |  | 3 nM | 0.05 nM
SVSEIQL[Nle]HSLGKHLKS[β3hI]ERVE[1Nal]LRKLLQRV-NH2 [[Nle^8, Ser^10, Lys^16, β-hIle^18, 1-Nal^23, Leu^27, Arg^30] hPTH (1-31)-NH2] |  |  |  |  | 7 nM | 0.08 nM
SVSEIQL[Nle]HNLGKHLNS[β3hI]ERVE[1Nal]LRKLLQRVHNF-NH2 [[Nle^8, β-hIle^18, 1-Nal^23, Leu^27, Arg^30] hPTH (1-34)-NH2] |  |  |  |  | 7 nM | 0.18 nM
